# From US20130005646A1 (Novo Nordisk, published 2013)
# Starred links: 1 amine or outer side, 2 acyl side, 3 side chain; linkers in the order of their positions; H or OH if unused. Positions of bridges follow the written chain, without caps; N, C: chain ends. *: point of attachment. C20 diacid = O=C(O)CCCCCCCCCCCCCCCCCCC(=O)*; γGlu = O=C(O)[C@H](CCC(=O)[*:2])N[*:1]
# T1: human calcitonin (a) receptor (human, UniProt P30988 25-474)
# T1 sequence (looked up): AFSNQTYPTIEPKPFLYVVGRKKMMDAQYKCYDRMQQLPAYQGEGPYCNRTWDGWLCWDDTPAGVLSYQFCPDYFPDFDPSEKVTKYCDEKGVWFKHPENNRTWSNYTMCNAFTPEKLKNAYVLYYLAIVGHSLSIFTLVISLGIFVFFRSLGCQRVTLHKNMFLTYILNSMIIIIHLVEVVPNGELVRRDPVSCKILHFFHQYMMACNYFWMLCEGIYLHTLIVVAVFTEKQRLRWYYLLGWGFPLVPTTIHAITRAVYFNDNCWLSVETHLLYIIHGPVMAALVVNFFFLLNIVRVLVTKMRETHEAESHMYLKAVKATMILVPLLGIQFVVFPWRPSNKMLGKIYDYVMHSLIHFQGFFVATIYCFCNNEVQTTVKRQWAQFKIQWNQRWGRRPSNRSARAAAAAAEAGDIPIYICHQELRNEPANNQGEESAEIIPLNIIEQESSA
# T2: human amylin 3(a) receptor (human calcitonin receptor + RAMP-3) (human, UniProt P30988 25-474; O60896 24-148)
# T2 sequence (looked up) 1: T1 sequence (looked up)
# T2 sequence (looked up) 2: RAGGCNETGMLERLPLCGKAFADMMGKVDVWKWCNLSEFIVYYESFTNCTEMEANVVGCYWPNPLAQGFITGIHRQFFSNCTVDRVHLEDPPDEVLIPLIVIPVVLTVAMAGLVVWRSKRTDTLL
# B1: N-alpha-[(S)-4-Carboxy-4-(19-carboxynonadecanoylamino)butyryl]-[Arg17,Pro37]-pramlintide (peptide)
# peptide: {C20 diacid-γGlu}-KCNTATCATQRLANFLRHSSNNFGPILPPTNVGSNTP-NH2
# modifications: disulfide 2-7
# SMILES: CC[C@H](C)[C@H](NC(=O)[C@@H]1CCCN1C(=O)CNC(=O)[C@H](Cc1ccccc1)NC(=O)[C@H](CC(N)=O)NC(=O)[C@H](CC(N)=O)NC(=O)[C@H](CO)NC(=O)[C@H](CO)NC(=O)[C@H](Cc1c[nH]cn1)NC(=O)[C@H](CCCNC(=N)N)NC(=O)[C@H](CC(C)C)NC(=O)[C@H](Cc1ccccc1)NC(=O)[C@H](CC(N)=O)NC(=O)[C@H](C)NC(=O)[C@H](CC(C)C)NC(=O)[C@H](CCCNC(=N)N)NC(=O)[C@H](CCC(N)=O)NC(=O)[C@@H](NC(=O)[C@H](C)NC(=O)[C@@H]1CSSC[C@H](NC(=O)[C@H](CCCCN)NC(=O)CC[C@H](NC(=O)CCCCCCCCCCCCCCCCCCC(=O)O)C(=O)O)C(=O)N[C@@H](CC(N)=O)C(=O)N[C@@H]([C@@H](C)O)C(=O)N[C@@H](C)C(=O)N[C@@H]([C@@H](C)O)C(=O)N1)[C@@H](C)O)C(=O)N[C@@H](CC(C)C)C(=O)N1CCC[C@H]1C(=O)N1CCC[C@H]1C(=O)N[C@H](C(=O)N[C@@H](CC(N)=O)C(=O)N[C@H](C(=O)NCC(=O)N[C@@H](CO)C(=O)N[C@@H](CC(N)=O)C(=O)N[C@H](C(=O)N1CCC[C@H]1C(N)=O)[C@@H](C)O)C(C)C)[C@@H](C)O
# B2: N-alpha-[(S)-4-Carboxy-4-(19-carboxynonadecanoylamino)butyryl]-Glu-Glu-[Arg1,Glu14,Arg17,Pro37]-pramlintide (peptide)
# peptide: {C20 diacid-γGlu}-EERCNTATCATQRLAEFLRHSSNNFGPILPPTNVGSNTP-NH2
# modifications: disulfide 4-9
# SMILES: CC[C@H](C)[C@H](NC(=O)[C@@H]1CCCN1C(=O)CNC(=O)[C@H](Cc1ccccc1)NC(=O)[C@H](CC(N)=O)NC(=O)[C@H](CC(N)=O)NC(=O)[C@H](CO)NC(=O)[C@H](CO)NC(=O)[C@H](Cc1c[nH]cn1)NC(=O)[C@H](CCCNC(=N)N)NC(=O)[C@H](CC(C)C)NC(=O)[C@H](Cc1ccccc1)NC(=O)[C@H](CCC(=O)O)NC(=O)[C@H](C)NC(=O)[C@H](CC(C)C)NC(=O)[C@H](CCCNC(=N)N)NC(=O)[C@H](CCC(N)=O)NC(=O)[C@@H](NC(=O)[C@H](C)NC(=O)[C@@H]1CSSC[C@H](NC(=O)[C@H](CCCNC(=N)N)NC(=O)[C@H](CCC(=O)O)NC(=O)[C@H](CCC(=O)O)NC(=O)CC[C@H](NC(=O)CCCCCCCCCCCCCCCCCCC(=O)O)C(=O)O)C(=O)N[C@@H](CC(N)=O)C(=O)N[C@@H]([C@@H](C)O)C(=O)N[C@@H](C)C(=O)N[C@@H]([C@@H](C)O)C(=O)N1)[C@@H](C)O)C(=O)N[C@@H](CC(C)C)C(=O)N1CCC[C@H]1C(=O)N1CCC[C@H]1C(=O)N[C@H](C(=O)N[C@@H](CC(N)=O)C(=O)N[C@H](C(=O)NCC(=O)N[C@@H](CO)C(=O)N[C@@H](CC(N)=O)C(=O)N[C@H](C(=O)N1CCC[C@H]1C(N)=O)[C@@H](C)O)C(C)C)[C@@H](C)O
# B3: N-alpha-[(S)-4-Carboxy-4-(19-carboxynonadecanoylamino)butyryl]-Glu-[Arg1,Glu14,Arg17,Pro37]-pramlintide (peptide)
# peptide: {C20 diacid-γGlu}-ERCNTATCATQRLAEFLRHSSNNFGPILPPTNVGSNTP-NH2
# modifications: disulfide 3-8
# SMILES: CC[C@H](C)[C@H](NC(=O)[C@@H]1CCCN1C(=O)CNC(=O)[C@H](Cc1ccccc1)NC(=O)[C@H](CC(N)=O)NC(=O)[C@H](CC(N)=O)NC(=O)[C@H](CO)NC(=O)[C@H](CO)NC(=O)[C@H](Cc1c[nH]cn1)NC(=O)[C@H](CCCNC(=N)N)NC(=O)[C@H](CC(C)C)NC(=O)[C@H](Cc1ccccc1)NC(=O)[C@H](CCC(=O)O)NC(=O)[C@H](C)NC(=O)[C@H](CC(C)C)NC(=O)[C@H](CCCNC(=N)N)NC(=O)[C@H](CCC(N)=O)NC(=O)[C@@H](NC(=O)[C@H](C)NC(=O)[C@@H]1CSSC[C@H](NC(=O)[C@H](CCCNC(=N)N)NC(=O)[C@H](CCC(=O)O)NC(=O)CC[C@H](NC(=O)CCCCCCCCCCCCCCCCCCC(=O)O)C(=O)O)C(=O)N[C@@H](CC(N)=O)C(=O)N[C@@H]([C@@H](C)O)C(=O)N[C@@H](C)C(=O)N[C@@H]([C@@H](C)O)C(=O)N1)[C@@H](C)O)C(=O)N[C@@H](CC(C)C)C(=O)N1CCC[C@H]1C(=O)N1CCC[C@H]1C(=O)N[C@H](C(=O)N[C@@H](CC(N)=O)C(=O)N[C@H](C(=O)NCC(=O)N[C@@H](CO)C(=O)N[C@@H](CC(N)=O)C(=O)N[C@H](C(=O)N1CCC[C@H]1C(N)=O)[C@@H](C)O)C(C)C)[C@@H](C)O
# B4: N-alpha-[(S)-4-Carboxy-4-(19-carboxynonadecanoylamino)butyryl]-[Arg14,Arg17,Pro37]-pramlintide (peptide)
# peptide: {C20 diacid-γGlu}-KCNTATCATQRLARFLRHSSNNFGPILPPTNVGSNTP-NH2
# modifications: disulfide 2-7
# SMILES: CC[C@H](C)[C@H](NC(=O)[C@@H]1CCCN1C(=O)CNC(=O)[C@H](Cc1ccccc1)NC(=O)[C@H](CC(N)=O)NC(=O)[C@H](CC(N)=O)NC(=O)[C@H](CO)NC(=O)[C@H](CO)NC(=O)[C@H](Cc1c[nH]cn1)NC(=O)[C@H](CCCNC(=N)N)NC(=O)[C@H](CC(C)C)NC(=O)[C@H](Cc1ccccc1)NC(=O)[C@H](CCCNC(=N)N)NC(=O)[C@H](C)NC(=O)[C@H](CC(C)C)NC(=O)[C@H](CCCNC(=N)N)NC(=O)[C@H](CCC(N)=O)NC(=O)[C@@H](NC(=O)[C@H](C)NC(=O)[C@@H]1CSSC[C@H](NC(=O)[C@H](CCCCN)NC(=O)CC[C@H](NC(=O)CCCCCCCCCCCCCCCCCCC(=O)O)C(=O)O)C(=O)N[C@@H](CC(N)=O)C(=O)N[C@@H]([C@@H](C)O)C(=O)N[C@@H](C)C(=O)N[C@@H]([C@@H](C)O)C(=O)N1)[C@@H](C)O)C(=O)N[C@@H](CC(C)C)C(=O)N1CCC[C@H]1C(=O)N1CCC[C@H]1C(=O)N[C@H](C(=O)N[C@@H](CC(N)=O)C(=O)N[C@H](C(=O)NCC(=O)N[C@@H](CO)C(=O)N[C@@H](CC(N)=O)C(=O)N[C@H](C(=O)N1CCC[C@H]1C(N)=O)[C@@H](C)O)C(C)C)[C@@H](C)O
# B5: N-alpha-[(S)-4-Carboxy-4-(19-carboxynonadecanoylamino)butyryl]-Glu-Glu-[Arg1,Glu14,Arg17,Gln21,Pro37]-pramlintide (peptide)
# peptide: {C20 diacid-γGlu}-EERCNTATCATQRLAEFLRHSSQNFGPILPPTNVGSNTP-NH2
# modifications: disulfide 4-9
# SMILES: CC[C@H](C)[C@H](NC(=O)[C@@H]1CCCN1C(=O)CNC(=O)[C@H](Cc1ccccc1)NC(=O)[C@H](CC(N)=O)NC(=O)[C@H](CCC(N)=O)NC(=O)[C@H](CO)NC(=O)[C@H](CO)NC(=O)[C@H](Cc1c[nH]cn1)NC(=O)[C@H](CCCNC(=N)N)NC(=O)[C@H](CC(C)C)NC(=O)[C@H](Cc1ccccc1)NC(=O)[C@H](CCC(=O)O)NC(=O)[C@H](C)NC(=O)[C@H](CC(C)C)NC(=O)[C@H](CCCNC(=N)N)NC(=O)[C@H](CCC(N)=O)NC(=O)[C@@H](NC(=O)[C@H](C)NC(=O)[C@@H]1CSSC[C@H](NC(=O)[C@H](CCCNC(=N)N)NC(=O)[C@H](CCC(=O)O)NC(=O)[C@H](CCC(=O)O)NC(=O)CC[C@H](NC(=O)CCCCCCCCCCCCCCCCCCC(=O)O)C(=O)O)C(=O)N[C@@H](CC(N)=O)C(=O)N[C@@H]([C@@H](C)O)C(=O)N[C@@H](C)C(=O)N[C@@H]([C@@H](C)O)C(=O)N1)[C@@H](C)O)C(=O)N[C@@H](CC(C)C)C(=O)N1CCC[C@H]1C(=O)N1CCC[C@H]1C(=O)N[C@H](C(=O)N[C@@H](CC(N)=O)C(=O)N[C@H](C(=O)NCC(=O)N[C@@H](CO)C(=O)N[C@@H](CC(N)=O)C(=O)N[C@H](C(=O)N1CCC[C@H]1C(N)=O)[C@@H](C)O)C(C)C)[C@@H](C)O
# B6: N-alpha-[(S)-4-Carboxy-4-(19-carboxynonadecanoylamino)butyryl]-Gly-[Arg1,Glu14,Arg17,Pro37]-pramlintide (peptide)
# peptide: {C20 diacid-γGlu}-GRCNTATCATQRLAEFLRHSSNNFGPILPPTNVGSNTP-NH2
# modifications: disulfide 3-8
# SMILES: CC[C@H](C)[C@H](NC(=O)[C@@H]1CCCN1C(=O)CNC(=O)[C@H](Cc1ccccc1)NC(=O)[C@H](CC(N)=O)NC(=O)[C@H](CC(N)=O)NC(=O)[C@H](CO)NC(=O)[C@H](CO)NC(=O)[C@H](Cc1c[nH]cn1)NC(=O)[C@H](CCCNC(=N)N)NC(=O)[C@H](CC(C)C)NC(=O)[C@H](Cc1ccccc1)NC(=O)[C@H](CCC(=O)O)NC(=O)[C@H](C)NC(=O)[C@H](CC(C)C)NC(=O)[C@H](CCCNC(=N)N)NC(=O)[C@H](CCC(N)=O)NC(=O)[C@@H](NC(=O)[C@H](C)NC(=O)[C@@H]1CSSC[C@H](NC(=O)[C@H](CCCNC(=N)N)NC(=O)CNC(=O)CC[C@H](NC(=O)CCCCCCCCCCCCCCCCCCC(=O)O)C(=O)O)C(=O)N[C@@H](CC(N)=O)C(=O)N[C@@H]([C@@H](C)O)C(=O)N[C@@H](C)C(=O)N[C@@H]([C@@H](C)O)C(=O)N1)[C@@H](C)O)C(=O)N[C@@H](CC(C)C)C(=O)N1CCC[C@H]1C(=O)N1CCC[C@H]1C(=O)N[C@H](C(=O)N[C@@H](CC(N)=O)C(=O)N[C@H](C(=O)NCC(=O)N[C@@H](CO)C(=O)N[C@@H](CC(N)=O)C(=O)N[C@H](C(=O)N1CCC[C@H]1C(N)=O)[C@@H](C)O)C(C)C)[C@@H](C)O
# Target: T1, human calcitonin (a) receptor
# Experiment: cell-based or functional assay
row,CTa receptor human EC50 [nM],Binder
1,0.057,B1
2,0.526,B2
3,0.168,B3
4,0.453,B4
5,0.547,B5
6,0.041,B6

# Target: T2, human amylin 3(a) receptor (human …)
# Experiment: cell-based or functional assay
row,Amylin receptor human EC50 [nM],Binder
1,0.053,B1
2,0.313,B2
3,0.066,B3
4,0.129,B4
5,0.465,B5
6,0.043,B6
